Test results: US20110064742 (published 2011)
Bridge positions count the residues as written; N and C are the ends. Square brackets hold non-standard residues; d marks the D form. Phe(4-Cl) = N[C@@H](Cc1ccc(Cl)cc1)C(=O)O; dPhe(4-Cl) = N[C@H](Cc1ccc(Cl)cc1)C(=O)O; Phe(4-F) = N[C@@H](Cc1ccc(F)cc1)C(=O)O; 2Nal = N[C@@H](Cc1ccc2ccccc2c1)C(=O)O; 3Pal = N[C@@H](Cc1cccnc1)C(=O)O

How the values were obtained:
SSTR-2 [1] = molecular target: SSTR-2 (human)
SSTR-2 [2] = molecular target: SSTR-2 (human); remark: listed apart in the source

SSTR-2 (human), sequence (chain, as listed by the source): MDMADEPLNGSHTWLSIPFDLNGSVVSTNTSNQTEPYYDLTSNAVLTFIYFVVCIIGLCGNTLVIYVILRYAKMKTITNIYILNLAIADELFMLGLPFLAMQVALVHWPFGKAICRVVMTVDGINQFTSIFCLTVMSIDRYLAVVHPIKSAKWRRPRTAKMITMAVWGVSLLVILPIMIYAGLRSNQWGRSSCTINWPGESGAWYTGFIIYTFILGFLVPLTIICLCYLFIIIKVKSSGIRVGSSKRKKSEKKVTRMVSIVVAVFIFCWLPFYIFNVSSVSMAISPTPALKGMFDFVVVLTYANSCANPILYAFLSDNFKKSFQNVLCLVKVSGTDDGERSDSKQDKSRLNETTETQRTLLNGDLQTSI

Binder | IC50 (SSTR-2 [1]) [nM] | Ki (SSTR-2 [2]) [nM]
H-[Phe(4-Cl)]C[3Pal]WKVC[2Nal]-NH2 (cysteine pairing not given here) [BIM 23,454] | 31.6 | 
H-[Phe(4-F)][dC][3Pal][dW]KIC[2Nal]-NH2 (disulfide 2-7; SMILES CC[C@H](C)[C@@H]1NC(=O)[C@H](CCCCN)NC(=O)[C@@H](Cc2c[nH]c3ccccc23)NC(=O)[C@H](Cc2cccnc2)NC(=O)[C@H](NC(=O)[C@@H](N)Cc2ccc(F)cc2)CSSC[C@@H](C(=O)N[C@@H](Cc2ccc3ccccc3c2)C(N)=O)NC1=O) [BIM 23,458] | 27.4 | 
Ac-HFIRWF-NH2 [AC-178,335] |  | 158

Second part, the binder after the results:

IC50 (SSTR-2 [1]) [nM] | Ki (SSTR-2 [2]) [nM] | Binder
6.4 |  | H-[dPhe(4-Cl)][dC][3Pal]WKVC[2Nal]-NH2 (disulfide 2-7; SMILES CC(C)[C@@H]1NC(=O)[C@H](CCCCN)NC(=O)[C@H](Cc2c[nH]c3ccccc23)NC(=O)[C@H](Cc2cccnc2)NC(=O)[C@H](NC(=O)[C@H](N)Cc2ccc(Cl)cc2)CSSC[C@@H](C(=O)N[C@@H](Cc2ccc3ccccc3c2)C(N)=O)NC1=O) [BIM 23,627]
 | 12.6 | H-[Phe(4-Cl)]C[3Pal][dW]KIC[2Nal]-NH2 (disulfide 2-7; SMILES CC[C@H](C)[C@@H]1NC(=O)[C@H](CCCCN)NC(=O)[C@@H](Cc2c[nH]c3ccccc23)NC(=O)[C@H](Cc2cccnc2)NC(=O)[C@@H](NC(=O)[C@@H](N)Cc2ccc(Cl)cc2)CSSC[C@@H](C(=O)N[C@@H](Cc2ccc3ccccc3c2)C(N)=O)NC1=O) [PRL-2915]
 | 25.1 | XCYWKTCX (cyclic disulfide; H-Cpa-cyclo[DCys-Tyr-DTrp-Lys-Thr-Cys]-Nal-NH2) [PRL-2970]
